The values that follow come from patent US20180291081A1 (GUANGZHOU INSTITUTES OF BIOMEDICINE AND HEALTH CHINESE …, published 2018).

The chains are these.
B1: high affinity PDL-1 molecule L1A4 (ligand)
chain: WTVTVPKDLYVVEYGSNMTIECKFPVEKQLDLAALQVFWMMEDKNIIQFVHGEEDLKVQHSSYRQRARLLKDQLSLGNAALQITDVKLQDAGVYTCLISYGGADYKRITVKVNAPYNKINQRILVVDPVTSEHELTCQAEGYPKAEVIWTSSDHQVLSGKTTTTNSKREEKLFNVTSTLRINTTTNEIFYCTFRRLDPEENHTAELVIPEL
B2: high affinity PDL-1 molecule L2H3 (ligand)
chain: FTVTVPKDLYVVEYGSNMTIECKFPVEKQLDLAALQVHWFMEDKNILSFVHGEEDLKVQHSSYRQRARLLKDQLSLGNAALQITDVKLQDAGVYRCMISYGGADYKRITVKVNAPYNKINQRILVVDPVTSEHELTCQAEGYPKAEVIWTSSDHQVLSGKTTTTNSKREEKLFNVTSTLRINTTTNEIFYCTFRRLDPEENHTAELVIPEL
B3: high affinity PDL-1 molecule L3B3 (ligand)
chain: FTVTVPKDLYVVEYGSNMTIECKFPVEKQLDLAALQVFWMMEDKNIIQFVHGEEDLKVQHSSYRQRARLLKDQLSLGNAALQITDVKLQDAGVYTCLIAYKGADYKRITVKVNAPYNKINQRILVVDPVTSEHELTCQAEGYPKAEVIWTSSDHQVLSGKTTTTNSKREEKLFNVTSTLRINTTTNEIFYCTFRRLDPEENHTAELVIPEL
B4: high affinity PDL-1 molecule L2B6 (ligand)
chain: FTVTVPKDLYVVEYGSNMTIECKFPVEKQLDLAALEVHWFMEDKNIVSFVHGEEDLKVQHSSYRQRARLLKDQLSLGNAALQITDVKLQDAGVYRCMISYGGADYKRITVKVNAPYNKINQRIRVVDPVTSEHELTCQAEGYPKAEVIWTSSDHQVLSGKTTTTNSKREEKLFNVTSTLRINTTTNEIFYCTFRRLDPEENHTAELVIPEL
B5: high affinity PDL-1 molecule L2A6 (ligand)
chain: FTVTVPKDLYVVEYGSNMTIECKFPVEKQLDLAALQVHWFMEDKNIASFVHGEEDLKVQHSSYRQRARLLKDQLSLGNAALQITDVKLQDAGVYRCMISYGGADYKRITVKVNAPYNKINQRIRVVDPVTSEHELTCQAEGYPKAEVIWTSSDHQVLSGKTTTTNSKREEKLFNVTSTLRINTTTNEIFYCTFRRLDPEENHTAELVIPEL
B6: high affinity PDL-1 molecule L1F2 (ligand)
chain: FTVTVPKDLYVVEYGSNMTIECKFPVEKQLDLAALQVNWLMEDKNIIQFVHGEEDLKVQHSSYRQRARLLKDQLSLGNAALQITDVKLQDAGVYLCLISYGGADYKRITVKVNAPYNKINQRILVVDPVTSEHELTCQAEGYPKAEVIWTSSDHQVLSGKTTTTNSKREEKLFNVTSTLRINTTTNEIFYCTFRRLDPEENHTAELVIPEL
B7: high affinity PDL-1 molecule L2B8 (ligand)
chain: FTVTVPKDLYVVEYGSNMTIECKFPVEKQLDLAALQVHWFMEDKNIVSFVHGEEDLKVQHSSYRQRARLLKDQLSLGNAALQITDVKLQDAGVYRCMISYGGADYKRITVKVNAPYNKINQRILVVDPVTSEHELTCQAEGYPKAEVIWTSSDHQVLSGKTTTTNSKREEKLFNVTSTLRINTTTNEIFYCTFRRLDPEENHTAELVIPEL
B8: high affinity PDL-1 molecule L2G10 (ligand)
chain: FTVTVPKDLYVVEYGSNMTIECKFPVEKQLDLAALQVHWFMEDKNIYSFVHGEEDLKVQHSSYRQRARLLKDQLSLGNAALQITDVKLQDAGVYRCMISYGGADYKRITVKVNAPYNKINQRILVVDPVTSEHELTCQAEGYPKAEVIWTSSDHQVLSGKTTTTNSKREEKLFNVTSTLRINTTTNEIFYCTFRRLDPEENHTAELVIPEL
B9: high affinity PDL-1 molecule L1C2 (ligand)
chain: FTVTVPKDLYVVEYGSNMTIECKFPVEKQLDLAALQVNWFMEDKNIIQFVHGEEDLKVQHSSYRQRARLLKDQLSLGNAALQITDVKLQDAGVYVCLISYGGADYKRITVKVNAPYNKINQRILVVDPVTSEHELTCQAEGYPKAEVIWTSSDHQVLSGKTTTTNSKREEKLFNVTSTLRINTTTNEIFYCTFRRLDPEENHTAELVIPEL
B10: high affinity PDL-1 molecule L3B3a (ligand)
chain: FTVTVPKDLYVVEYGSNMTIECKFPVEKQLDLAALQVFWMMEDKNIVSFVHGEEDLKVQHSSYRQRARLLKDQLSLGNAALQITDVKLQDAGVYTCLIAYKGADYKRITVKVNAPYNKINQRILVVDPVTSEHELTCQAEGYPKAEVIWTSSDHQVLSGKTTTTNSKREEKLFNVTSTLRINTTTNEIFYCTFRRLDPEENHTAELVIPEL
B11: high affinity PDL-1 molecule L3C7 (ligand)
chain: FTVTVPKDLYVVEYGSNMTIECKFPVEKQLDLAALEVHWFMEDKNIIQFVHGEEDLKVQHSSYRQRARLLKDQLSLGNAALQITDVKLQDAGVYTCLIGYKGADYKRITVKVNAPYNKINQRILVVDPVTSEHELTCQAEGYPKAEVIWTSSDHQVLSGKTTTTNSKREEKLFNVTSTLRINTTTNEIFYCTFRRLDPEENHTAELVIPEL
B12: high affinity PDL-1 molecule L2C4 (ligand)
chain: FTVTVPKDLYVVEYGSNMTIECKFPVEKQLDLAALQVHWWMEDKNIVSFVHGEEDLKVQHSSYRQRARLLKDQLSLGNAALQITDVKLQDAGVYRCMISYGGADYKRITVKVNAPYNKINQRILVVDPVTSEHELTCQAEGYPKAEVIWTSSDHQVLSGKTTTTNSKREEKLFNVTSTLRINTTTNEIFYCTFRRLDPEENHTAELVIPEL
B13: high affinity PDL-1 molecule L2F5 (ligand)
chain: FTVTVPKDLYVVEYGSNMTIECKFPVEKQLDLAALEVHWFMEDKNISSFVHGEEDLKVQHSSYRQRARLLKDQLSLGNAALQITDVKLQDAGVYRCMISYGGADYKRITVKVNAPYNKINQRILVVDPVTSEHELTCQAEGYPKAEVIWTSSDHQVLSGKTTTTNSKREEKLFNVTSTLRINTTTNEIFYCTFRRLDPEENHTAELVIPEL
B14: high affinity PDL-1 molecule L3B3C (ligand)
chain: WTVTVPKDLYVVEYGSNMTIECKFPVEKQLDLAALQVFWMMEDKNIVSFVHGEEDLKVQHSSYRQRARLLKDQLSLGNAALQITDVKLQDAGVYVCLIAYKGADYKRITVKVNAPYNKINQRILVVDPVTSEHELTCQAEGYPKAEVIWTSSDHQVLSGKTTTTNSKREEKLFNVTSTLRINTTTNEIFYCTFRRLDPEENHTAELVIPEL
B15: high affinity PDL-1 molecule L2F4 (ligand)
chain: FTVTVPKDLYVVEYGSNMTIECKFPVEKQLDLAALEVHWFMEDKNIFSFVHGEEDLKVQHSSYRQRARLLKDQLSLGNAALQITDVKLQDAGVYRCMISYGGADYKRITVKVNAPYNKINQRILVVDPVTSEHELTCQAEGYPKAEVIWTSSDHQVLSGKTTTTNSKREEKLFNVTSTLRINTTTNEIFYCTFRRLDPEENHTAELVIPEL
B16: high affinity PDL-1 molecule L3B3b (ligand)
chain: FTVTVPKDLYVVEYGSNMTIECKFPVEKQLDLAALQVFWMMEDKNIVSFVHGEEDLKVQHSSYRQRARLLKDQLSLGNAALQITDVKLQDAGVYVCLIAYKGADYKRITVKVNAPYNKINQRILVVDPVTSEHELTCQAEGYPKAEVIWTSSDHQVLSGKTTTTNSKREEKLFNVTSTLRINTTTNEIFYCTFRRLDPEENHTAELVIPEL
B17: high affinity PDL-1 molecule L3B3d (ligand)
chain: WTVTVPKDLYVVEYGSNMTIECKFPVEKQLDLAALQVFWMMEDKNILSFVHGEEDLKVQHSSYRQRARLLKDQLSLGNAALQITDVKLQDAGVYVCLIAYKGADYKRITVKVNAPYNKINQRILVVDPVTSEHELTCQAEGYPKAEVIWTSSDHQVLSGKTTTTNSKREEKLFNVTSTLRINTTTNEIFYCTFRRLDPEENHTAELVIPEL
B18: high affinity PDL-1 molecule L2D7 (ligand)
chain: FTVTVPKDLYVVEYGSNMTIECKFPVEKQLDLAALEVHWFMEDKNILSFVHGEEDLKVQHSSYRQRARLLKDQLSLGNAALQITDVKLQDAGVYRCMISYGGADYKRITVKVNAPYNKINQRILVVDPVTSEHELTCQAEGYPKAEVIWTSSDHQVLSGKTTTTNSKREEKLFNVTSTLRINTTTNEIFYCTFRRLDPEENHTAELVIPEL

For the test, the target named is T1, PD-1 molecule (refolded, purified and biotinylated PD-1 of Example 2) (UniProt Q15116 33-150, biotinylated with BirA enzyme (site not stated)).
T1 construct: also called Programmed Death-1
T1 sequence (Q15116 33-150 limits assumed): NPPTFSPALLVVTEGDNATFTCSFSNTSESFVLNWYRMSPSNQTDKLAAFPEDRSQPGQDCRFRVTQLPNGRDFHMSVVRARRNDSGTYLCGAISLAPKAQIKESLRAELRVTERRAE
The test can be described thus: SPR (BIAcore T200), single-cycle kinetics; biotinylated PD-1 captured via streptavidin, PDL-1 variant in solution. As for the experimental part:
The anti-streptavidin antibody (GenScript) was added to the coupling buffer (10 mM sodium acetate buffer, pH 4.77). The antibody was then flowed through a CMS chip previously activated with EDC and NHS to immobilize the antibody on the chip surface. Finally, the unreacted activation surface was blocked with a solution of ethanolamine hydrochloride to complete the coupling process.
A low concentration of streptavidin is allowed to flow over the surface of the antibody-coated chip, then the biotinylated PD-1 is passed through the detection channel and the other channel is used as a reference channel. Then, 0.05 mM biotin was passed through the chip at a flow rate of 10 μL/min for 2 min to block the remaining binding sites of streptavidin. The single-cycle kinetic analysis method was used to measure its affinity. […] The binding time for each injection was 120 s, and it was disassociated for 600 s after the last injection. The chips were regenerated with 10 mMGly-HCl, pH 1.75 after each round of assays. Kinetic parameters were calculated using BIAcore Evaluation software.
As to B1, binding was characterised by a dissociation constant (Kd) of 0.914 µM; the koff (as a rule, the rate constant with which the complex falls apart) was determined as 0.0439 s⁻¹; the on-rate constant (kon) (usually a measure of how fast the partners come together) stood at 48000 M⁻¹ s⁻¹.

Consider B2, for which the equilibrium dissociation constant (Kd) (in general, a measure of binding affinity in units of concentration) was 8.97 µM; the koff is 0.153 s⁻¹; the kon worked out at 17100 M⁻¹ s⁻¹.

Turning to B3, binding was characterised by a dissociation constant (Kd) of 0.499 µM, the koff is 0.071 s⁻¹ and the kon was 142000 M⁻¹ s⁻¹.

For B4, the Kd is 10.3 µM, the koff is 0.134 s⁻¹ and the kon was 13000 M⁻¹ s⁻¹.

For B5, the Kd was determined as 4.74 µM, the koff was determined as 0.0458 s⁻¹ and the kon stood at 9670 M⁻¹ s⁻¹.

In turn, B6 displayed a dissociation constant (Kd) of 3.44 µM, a koff of 0.104 s⁻¹ and a kon of 30200 M⁻¹ s⁻¹.

As for B7, the Kd came to 11.7 µM, the koff was found to be 0.15 s⁻¹ and the kon stood at 12800 M⁻¹ s⁻¹.

As for B8, the Kd is 4.6 µM, the koff amounted to 0.178 s⁻¹ and the kon amounted to 38700 M⁻¹ s⁻¹.

In the case of B9, the Kd turned out to be 0.751 µM, the koff was determined as 0.0376 s⁻¹ and the kon amounted to 50100 M⁻¹ s⁻¹.

In turn, B10 came in with a Kd of 0.557 µM, a koff of 0.09 s⁻¹ and a kon of 162000 M⁻¹ s⁻¹.

For the molecule B11, the Kd was found to be 0.75 µM, the koff stood at 0.0329 s⁻¹ and the kon stood at 43900 M⁻¹ s⁻¹.

Take B12: binding was characterised by a dissociation constant (Kd) of 11.2 µM, the koff stood at 0.124 s⁻¹ and the on-rate constant (kon) worked out at 11000 M⁻¹ s⁻¹.

With B13, the Kd is 10.1 µM, the koff was determined as 0.122 s⁻¹ and the kon was determined as 12200 M⁻¹ s⁻¹.

In the case of B14, the Kd is 0.648 µM, the koff was 0.044 s⁻¹ and the kon was found to be 67800 M⁻¹ s⁻¹.

With B15, the Kd is 7.54 µM, the koff is 0.154 s⁻¹ and the kon was determined as 20500 M⁻¹ s⁻¹.

B16 came in with a Kd of 0.666 µM, an off-rate constant (koff) of 0.0573 s⁻¹ and a kon of 86000 M⁻¹ s⁻¹.

Take B17: the Kd worked out at 0.964 µM, the koff stood at 0.0526 s⁻¹ and the kon turned out to be 54500 M⁻¹ s⁻¹.

Regarding B18, the Kd was determined as 10.9 µM, the off-rate (koff) was 0.123 s⁻¹ and the kon worked out at 11300 M⁻¹ s⁻¹.
